Source: the domain aggregation screens of Martell et al. (2025)

Assay: soluble fraction after stress (log2 fold change); higher = more stays soluble; pooled small domains, quantitative proteomics
Conditions: stress: 75 degC
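Note: 20 min heating vs room temperature control held 20 min.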

| Sequence | soluble fraction (log2) |
| --- | --- |
| HMPDLSAEERNIVEALQKSNDLQVNLIAVKTGMDMGTLSATLFGLEMKGLVKLMAGGTYHLI | -1.11 |
| HMPDLSEDEEKIVSLLRDNNDLNVNIIVMRTQLPSATVTSSLFSLELKGVVRMYAGGMYHLM | -3.73 |
| HMPDLSYVDEVLNRYKGHKGTLITVLQQVQAHKGYLEKEALERVARSMGVPTARIYGVVTFYAQFR | 0.138 |
| HMPDPVHAAYLRLAVLLTEQAIGPQVTEQQIRDRFALTRRQTSDLMGRLIREGIAEKRAGYGWNINTELTA | -1.16 |
| HMPDVAIMNVSVEPEKKVVRLQVKAISLEALLDFSTRLEAIPARVELQNHTPSKELSQKWAVNATLIVIY | 0.482 |
| HMPDYYAILEVERTADAKTIKAAYRKLALAYHPDRNPGDQAAEERFKQINEAYAVLSDPEKRARYDRYGSV | -0.131 |
| HMPEFKDMLKFFRMREHLSQSELAEKLGISASTVSMYEVGRRQPDFETEEKIADFFNTDLNTLRG | -0.693 |
| HMPEGTYLEKLAIENNNLQLIGLSREASQLVQLLQDAPQWRKVNLTGVLQADGAASGRDRFTMTAELQ | 0.0999 |
| HMPEKNQITHLIRLIDDRDEFVRKRVREQLIKLGEDAIPFLEMAAKTENLEIQRIASEIIQAIIPRQ | -0.745 |
| HMPELPPHELLRALMVEHDIKQSELPEVGPQPVVSDVLAGKRALNLRQVAALAARFHVPMEVFT | -0.161 |
| HMPELSITDADIIVAGGRGMGSAENFGLIRELAGLLGAAVGASRVVVDAEWVDQKHLIGQTGK | -0.0455 |
| HMPELTASDEADLKALVGGDQGFEQMANWARSNLGEEEINRFDAVVDSNNKDAIHMAIQAMQARMNA | -0.107 |
| HMPELTERELEVLLLTARGLPSSEAARLLFITRRTVAAHLTSIYGKLGARNKTEAVLAALKRGIIMLDQIG | -3.99 |
| HMPESYFEMLQKLLETYALPQEGTIYFSAADLARMPQKFEDVIEQTAQKKGGHLVVSKEPKDMDGGFVLV | -1.83 |
| HMPEVAHTIDMEAVNKHWDELPEREQRILVMRFYGNLTQTEIGERLGISQMHVSRLLARALSHLKSRLLD | -3.89 |
| HMPEVYPFEVAEDDAGKRLDVFLSEEIEEFTRSFIQKLIAGGLASVNRAPARASYRVKPRDLVELQVPE | -0.598 |
| HMPFNREYWIEQLLKEVGLMGTPYAELDKHEVELDSPTGRASGFKVNAKTYVDQQLLFIENEYNNQPE | -0.533 |
| HMPFREGDEVFVELVEPHMYNEDDAVAKLDGYVVAVRGAAGLVGQKVLVRIERVGRSSAEATLVA | -0.0609 |
| HMPGEIKKIPINSISYQDLKQHPYFDAYLAKQVIKYRETKGRIENIEQFREATRAYQSLIEKVTPYLDFE | -0.302 |
| HMPGGLSAEDVEKMVEKVLTVNGDVVEEIRSGRDPKGKKIKFLAGLVMRDARGQADAAAVSGILERRLKEG | 0.0256 |
| HMPGLITLEAAKTTALNHAKLTADQVTFVKQKLDRDDGRQVYEIEFYTSDYKEYDYEIDAVSGLILEVDYD | -0.866 |
| HMPGLPLWAFSTRGSAIHTGASFRDGDGLLFGPESRGLPDWLLEEVGQDRVLRLPMRPGSRSLNLSNAV | -0.577 |
| HMPGPAEMPGWITARAKKLGGQITPEAARALAAEMGSDTEQASREIEKLLTYVDYRRPVEEEDVALLTA | 0.16 |
| HMPGRKTTFEERLSIIEDLIKHDVNYSWAVDKYHVSYQQVYGWYQKYRKSGNDPQSLRDRRGK | -3.65 |
| HMPGRPSRISDAVKDQIDHDLRKNPRDLGYSQNLWDGKLLSHHLKERYQITLGIRQAQRLFHQLGFRQR | -0.846 |
| HMPGVLEVDTGGVAAVAYVDGVEVGRVPGELQIAAGTKTLMLKADRYLDYVQSLEIDGLGKRQLLVATLQS | -0.0797 |

| Sequence | soluble fraction (log2) |
| --- | --- |
| HMPGVTTQLHRLNGTEETYIIKRGDGVLEIDGEKSELQLGDAIIIPAGASQKISNIGDEDLE | -0.159 |
| HMPHFFISTSDVNQDIITVSDKENFHHIARVLRSKVGETLLLVDENRTQYKVVIQNIDSKSITTKVVETLK | -0.925 |
| HMPHFGVVLQMDDWKTLRDRLEARDDIDWVMKPNLRFEGQPGEQATLFIRDPSGNALEFKGFADLSQVF | -0.116 |
| HMPHSTTDFSVSPDERQIVYSTNLQGRYDLWALDHNQGYPYPLTKKGQMSFFIKHLPGSQMILTGFD | -0.161 |
| HMPIDQAKRKKEIIQNFGIRKIYKFSEIFDLKFGRDNIIVTFLIILDMIKEGVVEINENKEEIEFEYK | -0.152 |
| HMPIKYTHKGYTINVSRSKMNGTTFVKVVDPKGQVIQQSQDNRIQDVNQLVTTMKQYIDTLKPS | -0.274 |
| HMPILRDEVYLSIKEAILTGELAPGERISIGRLLPQIGFSPTPIREALLKLEQEGFVSRLQRGGFIVSR | -1.91 |
| HMPIQLLSEKYMDEHWDELDKDEVSLYQNMSIRFLLKHEDDINWKLYSTNPFISIDTIDFFKDKISWVNI | -2.34 |
| HMPKAKASARNDTRTRLLTIGTEVLSQKGFASTGVEEILSVAGVPKGAFYYYFESKAAFGLAVIENYE | 0.259 |
| HMPKAMAIMSEIAGTVHIDDTKKSRHVEVTGVDDNGAPVTKSYLIPFGHRLKVMEGDVLVKGALLT | -0.0702 |
| HMPKHHIESVIPENFAGERLDKVLAVLWGTFSRAQLTRWIRDGSLLLDGHKVKPNTKVDGSEKIVLQAEVA | -1.27 |
| HMPKNEHETKAIGNQTGGRVFLFLNTDNINRDYNMYISKQVKFVREISQEYYGKVAVFEDLYGNLWDLIE | 0.0316 |
| HMPKNRTDYVQDVLKSLGRPAHYKEITQIINAMLPKEAQYSAKSIQVVLGSSPLFIRVGTGTYALVE | -1.73 |
| HMPKNVEVPNVVGLSLPMAKLRLTQLGLHIVVRDSVWSETGQPNTILDQDPQPGKKIKPESTVYVKVN | -1.48 |
| HMPKRYAGPDIIAIYGSDVFFRVGSGDGLMVIPVGRSMDNIEVVSVDAPRSVELMWKDGGPFTVPV | 0.145 |
| HMPKSKTPDDAAEEFRTAFSALDMDGKVTVKDMAEYMGVIDKTVYARLKKMGDEFTLDKGVITKKT | -0.104 |
| HMPKTATIVIDLNYADAKEIVENLQTILAGETKDISVAPHPSANQIIASGDRWEVENISTIIKQLDR | 0.26 |
| HMPKTLTEAAYEDIKQWILEGEITPGSKISLEDTASRLEVSMTPIREALTKLQQEGLVEYIPRAGWRASK | -0.0907 |
| HMPLAQRFGLTVAQARVLDLLAEGRSNRQIGELLGLTEGTVKIHVSAIMKAMGVSNRAEAALMANRKR | -1.7 |
| HMPLDKDTTLDEIYRRFNMEHPADYKGHSLSMGDIVVFRQDGKQTAYYVDEGADYRQVPEFFVK | -0.0344 |
| HMPLDPFVVDALRDEIINTIKQHEPRVDLQKVQVQPIYTQNRVNISVQYKIVGLPIVEDITFVLQRP | 0.39 |
| HMPLEKGVVILDVTPSSAKVAVDGTSVETTYPLRLSAGLHQLSAEADGYDSITEYFKVETEKTTVTLDLSK | 0.236 |
| HMPLEQAELRLDLKQAILQMDRQTQELLLLRYVDGLSPGEAGKVLELSRFAVYRREKEALRKLRDYFSH | -1.93 |
| HMPLLSEWDAALEELWAKLGDVPMDPETERMDAPFLGFPAGTPREDIWHWFDERHSKGVAHLLYG | -2.46 |
| HMPLQYRLTVQPTPTNARVRLVNSAFTYRPGVALPPGSYIVEVSSSGYGAKRQAVQIADGDVTVPVELEKI | -0.582 |
| HMPLYKYYTSYQIEPGDTLTSIAQKYTINSDVSVQDYIDEVKKNNNLVSDKINSGSYLVVSYYSNEY | -1.36 |

| Sequence | soluble fraction (log2) |
| --- | --- |
| HMPNIQLARNLKYLRLAYGLTQDDLGAFLNISRQAYSNYENLKRSPDLDSLIRLASLYHLSLDDLVSR | -3.31 |
| HMPNTLAGIERYLGSGMVKGIGPVYASRLVSAFGTAVFDVIEQTPERLREIDGIGEKRTRKITSGWADQ | -0.213 |
| HMPNYIDAISALLTLKGVGDRKHASTMANILNLQYNSAKQKLDGKRGITLDEVKKVFQYFNEPF | -1.44 |
| HMPPAPGHDLTEREREVLRLLVEGLSNQEISDRLVISQSTVKNHVSSVLSKLDAANRAEAVALALKNQL | 0.0595 |
| HMPPELSDEVMEEAMSYLKNQYLNHGVKLEDYPALNKLFVDEAFRSEVIRKTQSNYKISYQSAMASLD | 0.355 |
| HMPPENVSVRREQIAEDKKTVYNVWVTKGNKTVLYSKVVYAWGGVYFFRDLNTSISENMYKQADAGLVN | 0.00373 |
| HMPPGQIVNEALQRAGNSTPTGTAISAQDDIKLYTSALAELATQGDTSSASVAKLREALQTAQVAFYNAV | 0.201 |
| HMPPITIVPNDNGVPIIRSQTPEISTAVNVELKAAGINTHTIDGTSIRVPKAQAQVAQQIVSRVNTRFT | 0.151 |
| HMPPNHADLKSSGLKATLPRLKILEIFQNSQVRHLSAEDVYKLLLAENLDVGLATVYRVLTQFEQAGL | -0.522 |
| HMPPNRDDEHLQALRDYYAANRRIPSLQRVASLLGFSSRSAAVKLMGRLADEGFIERTADDDAWITGKRFF | -1.34 |
| HMPPNVLSEREQEVLQLAADGMSNKEMGSELYIAPTTVRDHMQSIMRKLQVNSRTAAAVAGLKLGLLD | -0.452 |
| HMPPPTLVESAYNHLKADIISSYLKPDEKINLKDLSQRYQVSETPIKQALNRLISEGLIISVPRKGMWVH | 0.0697 |
| HMPPPVERAIRKLGHDLSLARRRRRISQDSMAQRMGASVSTVRRIEKGDPRIPIHFIARAMMILGDLKAL | 0.0447 |
| HMPQFDRQAFGQRLRLLRDYREMTQQQVANFLNVDRSTYSYYENGKTEPSITVLMRMAELFSVTLDSLLNM | -3.92 |
| HMPQIDLYPFEVRIEQDNNAAEYAVRFLDVPNIIGSGASIDEAIVEARGNLKEYLDYLIDTNRDIPLPS | -0.339 |
| HMPQISQDDLMEAGLIVGKEAKQRRIKLGEILGIGYVNAKQLPKRLQLFQVAKSDFEQAVQQIDG | -0.218 |
| HMPQKSDLTMEEYNKLGLAGGSGSRKLREQVGIRLSVGYGNSKQFYNRLHTFGISLDELKTAVEEVKNG | 0.226 |
| HMPQNVSVPDVTNMTQAEAESKLKEKNLAVGNIIPELSTTVEKDKVTRTNPESGSNVRKNSKVDIYVSQG | 0.154 |
| HMPQPDVIEVRQGIVTGMRPDRRTGWLRDEEDAAGEPKSFSIDVITPKGRTPGKGAVVTYTLTNGKITEVK | -0.047 |
| HMPRELKVRDVSHQHAGHAGWREGGETHFEVDMKADVFAGTSRVAAHRMVNKVLANELASRVHALQLNLS | 0.0164 |
| HMPRENLAYTLIMDGIVQHKNLPRASVTEAWLKQELQKAGINDFRQVLIAGIDSKGQLYFQPKQK | ≥ 1.04 |
| HMPRPLVAPMPGLIVRVTAVVGDSVDAGQGLVVMEAMKMENELRTTTAGVVKTVHVQPGVAVEKGALLIEF | -0.827 |
| HMPRTEILMVDEEMEGERLDAFVAEQLDELSRSLVKTLIENGEIRVDGKQQKPSYRLKAGEEIIVEIPA | 0.439 |
| HMPSDTNLIGKTGIAYTTLRPGGTALIDDRKVDVVADSEYIEKDKKIKVIRVEGIKVVVTAVK | 0.164 |
